From PMC5560055 (Journal of molecular biology, 2014) come the findings set out here.

For test [1], the target named is zip from GCN4 (T25-zip and T18-zip, positive control of the BACTH kit). Briefly: two-hybrid.
Test [2] deals with T1, N-terminally His-tagged PflB (E. coli, UniProt P09373 2-760).
T1 sequence: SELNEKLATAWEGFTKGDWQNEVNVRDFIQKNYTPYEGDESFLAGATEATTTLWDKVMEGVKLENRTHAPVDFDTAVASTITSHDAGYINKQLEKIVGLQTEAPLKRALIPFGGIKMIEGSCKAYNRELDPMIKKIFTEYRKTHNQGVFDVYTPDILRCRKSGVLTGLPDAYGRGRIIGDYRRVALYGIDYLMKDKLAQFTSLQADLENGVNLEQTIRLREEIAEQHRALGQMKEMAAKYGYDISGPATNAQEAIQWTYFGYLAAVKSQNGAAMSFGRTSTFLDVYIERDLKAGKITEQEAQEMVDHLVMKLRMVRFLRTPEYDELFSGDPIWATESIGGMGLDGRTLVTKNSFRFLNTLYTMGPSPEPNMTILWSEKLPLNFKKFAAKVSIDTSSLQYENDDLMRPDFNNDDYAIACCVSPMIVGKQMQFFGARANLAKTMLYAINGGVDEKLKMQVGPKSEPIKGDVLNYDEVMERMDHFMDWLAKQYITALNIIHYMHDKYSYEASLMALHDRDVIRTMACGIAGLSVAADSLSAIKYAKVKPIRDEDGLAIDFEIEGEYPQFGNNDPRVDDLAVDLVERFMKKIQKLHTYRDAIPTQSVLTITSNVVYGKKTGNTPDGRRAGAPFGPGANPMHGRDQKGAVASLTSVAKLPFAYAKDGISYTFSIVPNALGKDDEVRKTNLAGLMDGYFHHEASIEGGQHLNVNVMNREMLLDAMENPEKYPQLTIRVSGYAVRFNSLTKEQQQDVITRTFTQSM
The test is described as follows: cross-linking.

Test [3] has as its target T1, N-terminally His-tagged PflB. The test is described as follows: pull-down.

“zip from GCN4 (T25-zip and T18-zip, positive control of the BACTH kit) (domain or fragment)” yielded a β-galactosidase activity in test [1] of 715 units.

B1: FocA, purified preparation used for BS2G cross-linking (natural protein, E. coli)
chain: MKADNPFDLLLPAAMAKVAEEAGVYKATKHPLKTFYLAITAGVFISIAFVFYITATTGTGTMPFGMAKLVGGICFSLGLILCVVCGADLFTSTVLIVVAKASGRITWGQLAKNWLNVYFGNLVGALLFVLLMWLSGEYMTANGQWGLNVLQTADHKVHHTFIEAVCLGILANLMVCLAVWMSYSGRSLMDKAFIMVLPVAMFVASGFEHSIANMFMIPMGIVIRDFASPEFWTAVGSAPENFSHLTVMNFITDNLIPVTIGNIIGGGLLVGLTYWVIYLRENDHH
Consider B1, for which the binding result in test [2] was “binds”.

B2: N-terminally Strep-tagged FocA (formate channel A) (natural protein, E. coli, UniProt P0AC23 1-285, looked up)
chain: B1 chain
Consider B2, for which the binding result in test [3] is recorded as “binds”.
